In series [1] the target is MFV PR-RT ΔRH (deletion variant of MFV PR-RT that lacked the RH domain) (marmoset foamy virus (MFV)). Description: crystal structure; MFV PR-RT ΔRH at 5 mg/ml with 13-bp dsDNA with a 2-nt 5' overhang (substrate 2) at a 1:1 molar ratio; hanging drop; 0.1 M DL-malic acid pH 7.0, 10% PEG 3350; space group C 2.
For series [2], the target named is T1, MFV PR-RT full-length (marmoset foamy virus, UniProt D5JWV1 1-751). The series is described as follows: GF/MALS; 2:1 protein:NA; 0.5 mM EDTA; single peak 123.3 kDa, one protein per hybrid; GF/MALS: 20 mM HEPES pH 7.0, 250 mM NaCl, 5% glycerol, 0.5 mM EDTA, 1 mM DTT; cryo-EM: 150 mM NaCl, 20 mM HEPES pH 7.0, 1 mM DTT; crystals: N1 Morpheus MES-imidazole pH 6.5, 18 C; N2 0.1 M DL-malic acid pH 7.0, 10% PEG 3350. The conditions noted are these: protein: recombinant; tags: 6xHis-SUMO (pET28 vector); 28 bp, 5' overhang 6 nt on RNA.

The target in series [3] is T1, MFV PR-RT full-length. The series is described as follows: cryo-EM (4.8 A); asymmetric dimer; EMD-12698; GF/MALS: 20 mM HEPES pH 7.0, 250 mM NaCl, 5% glycerol, 0.5 mM EDTA, 1 mM DTT; cryo-EM: 150 mM NaCl, 20 mM HEPES pH 7.0, 1 mM DTT; crystals: N1 Morpheus MES-imidazole pH 6.5, 18 C; N2 0.1 M DL-malic acid pH 7.0, 10% PEG 3350. Conditions: protein: recombinant; tags: 6xHis-SUMO (pET28 vector); 22 bp, 5' overhang 2 nt on template.

The target in another series is MFV PR-RT ΔRH (marmoset foamy virus, UniProt D5JWV1 1-588). The series is described as follows: X-ray crystallography; asymmetric homodimer; 1:1 mix; GF/MALS: 20 mM HEPES pH 7.0, 250 mM NaCl, 5% glycerol, 0.5 mM EDTA, 1 mM DTT; cryo-EM: 150 mM NaCl, 20 mM HEPES pH 7.0, 1 mM DTT; crystals: N1 Morpheus MES-imidazole pH 6.5, 18 C; N2 0.1 M DL-malic acid pH 7.0, 10% PEG 3350. Conditions: protein: recombinant; tags: 6xHis-SUMO (pET28 vector); chain copies: 2; 13 bp, 5' overhang 2 nt on template.

In series [4] the target is T1, MFV PR-RT full-length. The series is described as follows: X-ray crystallography; monomer; 1:1 mix; GF/MALS: 20 mM HEPES pH 7.0, 250 mM NaCl, 5% glycerol, 0.5 mM EDTA, 1 mM DTT; cryo-EM: 150 mM NaCl, 20 mM HEPES pH 7.0, 1 mM DTT; crystals: N1 Morpheus MES-imidazole pH 6.5, 18 C; N2 0.1 M DL-malic acid pH 7.0, 10% PEG 3350. The conditions noted are these: protein: recombinant; tags: 6xHis-SUMO (pET28 vector); 15 bp; RNA 5' overhang 2 nt and 3' overhang 1 nt; recessed DNA 3' end.

One may read the stoichiometry N as the number of molecules, sites or subunits per partner or assembly.

Take “MFV PR-RT ΔRH (deletion variant of MFV PR-RT that lacked the RH domain) (domain or fragment)”: the stoichiometry N in series [1] amounted to 2.

B1: GF/MALS RNA/DNA hybrid (DNA:RNA)
RNA: GUGAGCGAACAGAGUGCGACACCUGAUUCCAUGA
DNA: TCATGGAATCAGGTGTCGCACTCTGTTC
As for B1, the binding result with MFV PR-RT full-length [2] was “binds”.

B2: substrate 3 dsDNA (dsDNA)
DNA 1: AACAGAGTGCGACACCTGATTCCA
DNA 2: TGGAATCAGGTGTCGCACTCTG
As for B2, the binding result with MFV PR-RT full-length [3] was “binds”.

B3: substrate 2 dsDNA (dsDNA)
DNA 1: AACAGAGTGCGACAC
DNA 2: GTGTCGCACTCTG
On to B3, for which the binding result with MFV PR-RT ΔRH is given as “binds”.

B4: substrate 1 PPT RNA/DNA hybrid (DNA:RNA)
RNA: UUCUUGUCCAGGAGAGGG
DNA: CCTCTCCTGGACAAG
In the case of B4, the binding result with MFV PR-RT full-length [4] was “binds”.

Source of the values: publication PMC8387031, “Structures of Substrate Complexes of Foamy Viral Protease-Reverse Transcriptase”.
